Test results reported in patent US20210087238A1, “CELL PENETRATING PEPTIDES AND RELATED COMPOSITIONS AND METHODS” (Phylogica Limited, priority 2017, published 2021).
Entries after “also recorded” stand apart in the source; their conditions may differ.

What was measured:
[1] = tested on: AMO-1, HL-60, and T47D cell lines; assay: Omomyc cell viability assay, statements made for all three cell lines together; assay type: cell-based; settings: 48 h; ATP activity; AMO-1, HL-60, T47D
Method: (§1) Treatment of (A) AMO-1 (plasmacytoma), (B) HL-60 (promyelocytic leukemia), and (C) T47D (breast cancer) cell lines with FPP-1.1_Omomyc protein. After 48 h incubation, cell viability was assessed by measuring ATP activity. […] Results are representative of two independent experiments. Error bars represent standard deviation from the mean of duplicate samples.
Treatment of AMO-1 (plasmacytoma), HL-60 (promyelocytic leukemia), and T47D (breast cancer) cell lines with FPP1.1_Omomyc or small molecule inhibitors. After a 48 h incubation, the cell viability was assessed by measuring ATP activity. […] Results are from one independent experiment. Error bars represent standard deviation from the mean of duplicate samples.
(§2) All assays followed manufacturer's instructions.

AMO-1 (plasmacytoma) = assay: Omomyc cell viability assay, ATP activity; assay type: cell-based; settings: AMO-1 cells only
Method: as §1, §2

B1: Omomyc: Myc dominant negative peptide (protein)
chain: GPGGSGTGATSDTEENVKRRTHNVLERQRRNELKRSFFALRDQIPELENNEKAPKVVILKKATAYILSVQAETQKLISEIDLLRKQNEQLKHKLEQLRNSCA
modifications: Amino acid sequence of Omomyc
notes: Myc dominant negative peptide
B1 was tested, and the “effect on cell viability” value [1] was “no effect on cell viability; also recorded: poor potency; also recorded: minor effect on cell viability only at the highest concentrations” and the “doses at which a slight reduction in cell viability was seen” value (AMO-1 (plasmacytoma)) was “above 10 μM”.
